Percent reduction of peptidase activity by 500 nM 33-mer peptide, pH 7.0, Ki and percent inhibition of recombinant peptidase activity by 10 nM propeptide, pH 7.0 data for five substances are collected here from paper PMC7720491.

Assay [1] addresses recombinant F. hepatica cathepsin L3 (FhCL3), activated mature enzyme (Fasciola hepatica).
The target of assay [2] is recombinant F. hepatica cathepsin L1 (FhCL1), activated mature enzyme (Fasciola hepatica).
The target of assay [3] is recombinant F. hepatica cathepsin L2 (FhCL2), activated mature enzyme (Fasciola hepatica). The experiment in a line: enzyme inhibition kinetics (Ki, Morrison equation).
Assay [4] deals with human cathepsin K (HsCK) (human) (UniProt P43235). Description: enzyme inhibition kinetics (Ki, Morrison equation).
Sequence of human cathepsin K (HsCK) (human) (P43235 115-329): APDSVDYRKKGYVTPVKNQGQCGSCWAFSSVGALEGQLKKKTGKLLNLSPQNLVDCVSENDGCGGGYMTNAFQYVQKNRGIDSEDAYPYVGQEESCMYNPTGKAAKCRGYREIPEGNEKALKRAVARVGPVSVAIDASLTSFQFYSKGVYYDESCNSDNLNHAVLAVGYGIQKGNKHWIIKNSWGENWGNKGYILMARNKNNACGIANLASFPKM
Assay [5] deals with recombinant F. hepatica cathepsin L3 (FhCL3), activated mature enzyme (Fasciola hepatica). The experiment in a line: enzyme inhibition kinetics (Ki, Morrison equation).
The target of assay [6] is recombinant F. hepatica cathepsin L1 (FhCL1), activated mature enzyme (Fasciola hepatica). Description: enzyme inhibition kinetics (Ki, Morrison equation).
Assay [7] concerns the target human cathepsin L (HsCL) (human). Description: enzyme inhibition kinetics (Ki, Morrison equation).
Assay [8] has as its target recombinant F. hepatica cathepsin L2 (FhCL2), activated mature enzyme (Fasciola hepatica).
For assay [9], the target named is recombinant F. hepatica cathepsin L3 (FhCL3), activated mature enzyme (Fasciola hepatica). The source holds these as a separate data set.
Assay [10] has as its target recombinant F. hepatica cathepsin L1 (FhCL1), activated mature enzyme (Fasciola hepatica). This is another data set of the same source.

The Ki is a measure of affinity in units of concentration, obtained from inhibition or displacement.

Regarding “33-mer synthetic peptide derived from the FhCL3 propeptide (p45 to p77)”, the figures for the percent reduction of peptidase activity by 500 nM 33-mer peptide, pH 7.0 in [1] and in [2] were 50% and 30%, respectively.
As to “recombinant FhCL3 propeptide (ppFhCL3), wild type (from UniProt A0A879R2T5 1-326) (domain or fragment)”, the Ki in assay [3] was 0.004 nM; in assay [4], 2 nM; in assay [5], < 0.002 nM; in [6], 0.04 nM; in assay [7] it was 26.6 nM. The percent inhibition of recombinant peptidase activity by 10 nM propeptide, pH 7.0 turned out to be 97% in [8], 100% in assay [9] and 98% in assay [10].
Regarding “ppFhCL3_Glu^68/Arg^68 (domain or fragment)”, the Ki came out at 0.02 nM in assay [3]; 1.4 nM in [4]; 0.002 nM in assay [5]; 0.3 nM in assay [6]; 6.04 nM in [7]. Also, the percent inhibition of recombinant peptidase activity by 10 nM propeptide, pH 7.0 was < 20% in [8], < 20% in assay [9] and 95% in assay [10].
Turning to “ppFhCL3_Leu^66/Gly^66 (domain or fragment)”, the Ki in assay [3] is > 10000 nM; in assay [4], > 10000 nM; in assay [5], 8 nM; in assay [6], 0.05 nM; in assay [7] it was > 10000 nM. Besides, the percent inhibition of recombinant peptidase activity by 10 nM propeptide, pH 7.0 in [10] was 90%.
Turning to “ppFhCL3_Tyr^46Lys^47/Ala^46Ala^47 (domain or fragment)”, the Ki in [3] was > 10000 nM; in [4], > 10000 nM; in [5], > 10000 nM; in [6] it was 1.26 nM; in [7], > 10000 nM. For the same substance, the percent inhibition of recombinant peptidase activity by 10 nM propeptide, pH 7.0 in [10] came out at 85%.
